Data on 22 molecules can be found in patent CN110144011A (SHANGHAI NOVAMAB BIOPHARMACEUTICALS CO LTD, dated 2019).

The target in assay [1] is TIM-3 on HEK 293T TIM-3稳转细胞 (UniProt Q8TDQ0). Kind of assay: flow cytometry on HEK 293T TIM-3 stable cells, 6 ug antibody per 5x10^5 cells, goat-anti-human FITC. Background: In flow cytometry, cells or beads pass a laser one at a time.
Another assay concerns the target T1, TIM3(ECD)-Fc抗原 (human, UniProt Q8TDQ0 22-202).
T1 construct: extracellular domain;domain: Fc; Made in HEK293F cells, purified on Protein A; also called 人TIM3(ECD); pFUSE-IgG1-TIM3(ECD); not shown: TEV cleavage site at the C-terminus of TIM3(ECD); IgG1 Fc of the pFUSE-IgG1 vector
T1 sequence (looked up): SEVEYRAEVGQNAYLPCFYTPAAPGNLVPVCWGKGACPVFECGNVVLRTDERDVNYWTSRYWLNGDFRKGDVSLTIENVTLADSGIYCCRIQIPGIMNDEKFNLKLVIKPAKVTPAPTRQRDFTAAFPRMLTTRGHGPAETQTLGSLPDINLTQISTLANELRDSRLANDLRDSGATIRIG
Kind of assay: ELISA of crude periplasmic extract on antigen-coated plate, anti-HA detection; clones positive at OD ratio to control >3. In general terms: ELISA stands for enzyme-linked immunosorbent assay.

Assay [2] concerns the target TIM-3 on HEK 293T TIM-3稳转细胞 (UniProt Q8TDQ0). As to the kind of experiment: flow cytometry on HEK293T TIM-3 stable cells, 6 ug nanobody per well, anti-His Alexa Fluor 488.

Turning to “TIM-3阳性抗体(bench marker，BMK; TSR-022) (antibody)”, the 阳性细胞比例 in assay [1] was 98.1%.

B1: Nb17 (VHH)
VHH: QVQLQESGGGSVQAGGSLRLSCAASTTLYIASLGWFRQAPGKEREGVAAVDRDGNLDYADSVKGRFTFSRDHAKNTLYLQMNSLKPEDAAMYYCSAALSYVPAGRRLQPDAYNYWGQGTQVTVSS
notes: Camel VHH from the pMECS vector, made in E. coli; detected through HA tag (ELISA) or His tag (flow cytometry); also called 抗体株17
As to B1, the binding result with TIM3(ECD)-Fc抗原 is “binds”.

B2: Nb21 (VHH)
VHH: QVQLQESGGGSVQAGGSLRLYCAASKITYVSSCMGWFRQAPGKEREGVASIDRDGSTTYADSVKGRFTISRDNAKDSLYLQMNSLKPEDTAMYYCAADWGRWCSLEKAVDFVYWGQGTQVTVSS
notes: Camel VHH from the pMECS vector, made in E. coli; detected through HA tag (ELISA) or His tag (flow cytometry); also called 抗体株21
On to B2, for which the binding result in the assay with TIM3(ECD)-Fc抗原 is listed as “binds”. In addition, in assay [2], the 结合力 (阳性细胞的比例) was above 80%.

B3: Nb27 (VHH)
VHH: QVQLQESGGGLVQPGGSLRLSCAAAGFTFSSSEMTWVRQAPGKGLEWVARISSTSAFTQYAGSVKGRFTISRDNAKNTLYLQLNSLKTEDTAMYYCAKDVYCGGQYCPPVGPGTQVTVSS
B3 displayed a 结合力 (阳性细胞的比例) in assay [2] above 80%.

B4: Nb19 (VHH)
VHH: QVQLQESGGGSVQAGGSLRLSCAASTYTVVRNCFGWFRQAPGKKREGVAVIDRDGSTRYAASVKGRFTISKDNAKNALYLQMSSLEPEDTAVYYCAADWNNDRSCPLWADGFGYWGQGTQVTVSS
notes: Camel VHH from the pMECS vector, made in E. coli; detected through HA tag (ELISA) or His tag (flow cytometry); also called 抗体株19
As for B4, in the assay with TIM3(ECD)-Fc抗原, the binding result is reported as “binds”.

B5: Nb22 (VHH)
VHH: QVQLQESGGGSVRAGGSLRLSCAASGYTYSLYCMGWFRQAPGKEREGVAAISAGGGTTYYSDAVKGRFTISRDNAKKTLYLQMNSLNPEDTAMYYCARSGGYCGLLEYPFTSWGPGTQVTVSS
notes: Camel VHH from the pMECS vector, made in E. coli; detected through HA tag (ELISA) or His tag (flow cytometry); also called 抗体株22
Turning to B5, the binding result with TIM3(ECD)-Fc抗原 is “binds”. For the same molecule, the 结合力 (阳性细胞的比例) in assay [2] is above 80%.

B6: Nb4 (VHH)
VHH: QVQLQESGGGSVQAGGSLRLSCTASGYTYSRACMGWFRQAPGKQREWVSGIRHDGSTSYADSVKGRFTISRDNAKNTLYLQMNSLKPEDTAMYYCGADIDCRQSRPPYWGQGTQVTVSS
notes: Camel VHH from the pMECS vector, made in E. coli; detected through HA tag (ELISA) or His tag (flow cytometry); also called 抗体株4
For B6, in the assay with TIM3(ECD)-Fc抗原, the binding result is given as “binds”.

B7: Nb3 (VHH)
VHH: QVQLQESGGGSVQVGGSLRLSCTASGYTYSRACMGWFRQAPGKQRDWVSGIRHDGSTSYADSVKGRFTISRDNAKNTLYLQMNSLKPEDTAMYYCGADIDCRQSRPPYWGQGTQVTVSS
notes: Camel VHH from the pMECS vector, made in E. coli; detected through HA tag (ELISA) or His tag (flow cytometry); also called 抗体株3
With B7, the binding result in the assay with TIM3(ECD)-Fc抗原 was “binds”.

B8: Nb5 (VHH)
VHH: QVQLQESGGGSVQVGGSLRLSCTASGYTYSRACMGWFRQAPGKQREWVSGIRHDGSTSYADSVKGRSTISRDNAKNTLYLQMNSLKPEDTAMYYCGADIDCRQSRPPYWGQGTQVTVSS
notes: Camel VHH from the pMECS vector, made in E. coli; detected through HA tag (ELISA) or His tag (flow cytometry); also called 抗体株5
Consider B8, for which the binding result in the assay with TIM3(ECD)-Fc抗原 is listed as “binds”.

B9: Nb2 (VHH)
VHH: QVQLQESGGGSVQVGGSLRLSCTASGYTYSRACMGWFRQAPGKQREWVSGIRHDGSTSYADSVKGRFTISRDNTKNTLYLQMNSLKPEDTAMYYCGADIDCRQSRPPYWGQGTQVTVSS
notes: Camel VHH from the pMECS vector, made in E. coli; detected through HA tag (ELISA) or His tag (flow cytometry); also called 抗体株2
On to B9, for which the binding result in the assay with TIM3(ECD)-Fc抗原 was “binds”.

B10: Nb8 (VHH)
VHH: QVQLQESGGGSVQAGGSLRLSCTASGYTYSRACMGWFRQAPGKQREWVSGIRHDGSITYADSVKGRFTISRDNAKNTLYLQMNNLKPEDTAMYYCGADIDCRGTRPPYWGQGTQVTVSS
notes: Camel VHH from the pMECS vector, made in E. coli; detected through HA tag (ELISA) or His tag (flow cytometry); also called 抗体株8
As to B10, the binding result with TIM3(ECD)-Fc抗原 is “binds”.

B11: Nb6 (VHH)
VHH: QVQLQESGGGSVQVGGSLRLSCTASGYTYSRACMGWFRQAPGKQREWVSGIRHDGSITYADSVKGRFTISRDNAKNTLYLQMNSLKPEDTAMYYCGADIDCRGTRPPYWGQGTQVTVSS
notes: Camel VHH from the pMECS vector, made in E. coli; detected through HA tag (ELISA) or His tag (flow cytometry); also called 抗体株6
Turning to B11, the binding result with TIM3(ECD)-Fc抗原 is “binds”.

B12: Nb7 (VHH)
VHH: QVQLQESGGGSVQAGGSLRLSCAASGYTYSRACMGWFRQAPGKQREWVSGIRHDGSITYADSVKGRFTISRDNAKNTLYLQMNSLKPEDTAMYYCGADIDCRGTRPPYWGQGTQVTVSS
notes: Camel VHH from the pMECS vector, made in E. coli; detected through HA tag (ELISA) or His tag (flow cytometry); also called 抗体株7
In the case of B12, the binding result with TIM3(ECD)-Fc抗原 is on record as “binds”.

B13: Nb20 (VHH)
VHH: QVQLQESGGGLVQPGGSLRLSCAASGFTFSVADMTWVRQGLGKGFEWVASVNSDGGSTYYADSVKGRFTISRDNAKNTLYLRLNSLKTEDTAVYYCAIGRTPCTGGFCHRGQGTQVTVSS
In the case of B13, the 结合力 (阳性细胞的比例) in assay [2] was above 80%.

B14: Nb15 (VHH)
VHH: QVQLQESGGGSVQAGGSLKLSCTASVWIFSNCAMAWYRQAPGKEREFVSAIGSFRDTNYADSVKGRFTISRDNAKNTGYLQMNSLKPEDSAMYYCKIQCGTQVNWGQGTQVTVSS
notes: Camel VHH from the pMECS vector, made in E. coli; detected through HA tag (ELISA) or His tag (flow cytometry); also called 抗体株15
For the molecule B14, the binding result with TIM3(ECD)-Fc抗原 is reported as “binds”.

B15: Nb16 (VHH)
VHH: QVQLQESGGGSVQAGGSLRLSCTASRSTYCMGWFRQAPGKEREGVAIISSDGRTNYADPVKGRFTISKDNAKNTMFLQMNSLKPEDTAMYYCATRPGNSCGTGIDMPYWGKGTQVTVSS
notes: Camel VHH from the pMECS vector, made in E. coli; detected through HA tag (ELISA) or His tag (flow cytometry); also called 抗体株16
On to B15, for which, in the assay with TIM3(ECD)-Fc抗原, the binding result is given as “binds”. In addition, the 结合力 (阳性细胞的比例) in assay [2] is above 80%.

B16: Nb18 (VHH)
VHH: QVQLQESGGGLVQPGGSLRLSCAASGFTFSVADMSWVRQGPGKGFEWVSSINSDGVSTYYADSVKGRFTISRDNAENTLYLRANSLKTEDTAVYYCAIGHTPCTAGSCRRGQGTQVTVSS
In the case of B16, the 结合力 (阳性细胞的比例) in assay [2] was above 80%.

B17: Nb28 (VHH)
VHH: QVQLQESGGGSVQAGGSLRLSCAATKALVISCLAWFRQAPGKEREWVALIGRDGSTSYPDSVKGRFTFSKNTAKNTLELQMNNLKPEDTGAYYCAAATKQDGIPLNPADYDIWGRGTQVTVSS
notes: Camel VHH from the pMECS vector, made in E. coli; detected through HA tag (ELISA) or His tag (flow cytometry); also called 抗体株28
In the case of B17, the binding result with TIM3(ECD)-Fc抗原 is listed as “binds”.

B18: Nb25 (VHH)
VHH: QVQLQESGGGSVQAGGSLRLSCAASVDIYRTYCMGWFRQAPGKQREGVAAISTDGRIRYANSVEGRFTISKDNANNTLYLQMNSLKPEDTAMYFCAADSARCGLWLGGGYPNYWGRGTQVTVSS
notes: Camel VHH from the pMECS vector, made in E. coli; detected through HA tag (ELISA) or His tag (flow cytometry); also called 抗体株25
As for B18, the binding result in the assay with TIM3(ECD)-Fc抗原 is reported as “binds”. The molecule also gave a 结合力 (阳性细胞的比例) in assay [2] above 80%.

B19: Nb26 (VHH)
VHH: QVQLQESGGGLVQPGGSLRLSCTASGSTFSTALMGWFRQAPGKEREGVAVISAGGGSTWYADSVKGRFTISRDNTKNTVFLQMISLKPEDTAMYYCASSNSLWTRESRYFGYWGQGTQVTVSS
notes: Camel VHH from the pMECS vector, made in E. coli; detected through HA tag (ELISA) or His tag (flow cytometry); also called 抗体株26
For B19, the binding result with TIM3(ECD)-Fc抗原 was “binds”. In assay [2], the 结合力 (阳性细胞的比例) was above 80%.

B20: Nb23 (VHH)
VHH: QVQLQESGGGSVQTGGSLRLSCTASGFTFSSADMSWVRQAPGKGLEWVSSINSGGGWTDYADSVQGRFTISRDNGKNTLYLQMNSLKTEDTAVYYCTIGNTYCSRGACLRGQGTQVTVSS
In turn, B20 registered a 结合力 (阳性细胞的比例) in assay [2] above 80%.

B21: Nb24 (VHH)
VHH: QVQLQESGGGLVQPGGSLRLSCAASGFTFSVADMSWVRQAPGKGLEWVSSINSGGGRTYYADSMKGRFTISRDNGKNTLYLQMNSLKTEDTAVYYCTIGHTYCSGGACLRGQGTQVTVSS
In assay [2], B21 gave a 结合力 (阳性细胞的比例) above 80%.
